Values quoted from earlier work as cited in patent publication US5866683A, “Isoelectric point markers for isoelectric focusing with fluorescence detection” (Laboratory of Molecular Biophotonics, priority 1995, dated 1999).
Values joined by “and” are separate entries in the source; they are usually repeats but may differ in a detail not shown here. Identical values can stand only once.

B1: lentilectin (protein, UniProt P02870 31-210; P02870 218-269, looked up)
Lectin beta chain: TETTSFSITKFSPDQKNLIFQGDGYTTKGKLTLTKAVKSTVGRALYSTPIHIWDRDTGNVANFVTSFTFVIDAPSSYNVADEFTFFIAPVDTKPQTGGGYLGVFNSKEYDKTSQTVAVEFDTFYNAAWDPSNKERHIGIDVNSIKSVNTKSWNLQNGERANVVIAFNAATNVLTVTLTYP
Lectin alpha chain: VTSYTLNEVVPLKDVVPEWVRIGFSATTGAEFAAHEVHSWSFHSELGGTSSS
notes: conventional protein pI marker, three pI's
B2: trypsinogen (protein, UniProt P00760 18-246, looked up)
pro-form: VDDDDKIVGGYTCGANTVPYQVSLNSGYHFCGGSLINSQWVVSAAHCYKSGIQVRLGEDNINVVEGNEQFISASKSIVHPSYNSNTLNNDIMLIKLKSAASLNSRVASISLPTSCASAGTQCLISGWGNTKSSGTSYPDVLKCLKAPILSDSSCKSAYPGQITSNMFCAGYLEGGKDSCQGDSGGPVVCSGKLQGIVSWGSGCAQKNKPGVYTKVCNYVSWIKQTIASN
modifications: pro-form
notes: conventional protein pI marker
B3: equine myoglobin (protein, UniProt P68082 2-154, looked up)
Myoglobin: GLSDGEWQQVLNVWGKVEADIAGHGQEVLIRLFTGHPETLEKFDKFKHLKTEAEMKASEDLKKHGTVVLTALGGILKKKGHHEAELKPLAQSHATKHKIPIKYLEFISDAIIHVLHSKHPGDFGADAQGAMTKALELFRNDIAAKYKELGFQG
notes: as for B2
B4: amyloglucosidase (protein, UniProt P69328 25-640, looked up)
Glucoamylase: ATLDSWLSNEATVARTAILNNIGADGAWVSGADSGIVVASPSTDNPDYFYTWTRDSGLVLKTLVDLFRNGDTSLLSTIENYISAQAIVQGISNPSGDLSSGAGLGEPKFNVDETAYTGSWGRPQRDGPALRATAMIGFGQWLLDNGYTSTATDIVWPLVRNDLSYVAQYWNQTGYDLWEEVNGSSFFTIAVQHRALVEGSAFATAVGSSCSWCDSQAPEILCYLQSFWTGSFILANFDSSRSGKDANTLLGSIHTFDPEAACDDSTFQPCSPRALANHKEVVDSFRSIYTLNDGLSDSEAVAVGRYPEDTYYNGNPWFLCTLAAAEQLYDALYQWDKQGSLEVTDVSLDFFKALYSDAATGTYSSSSSTYSSIVDAVKTFADGFVSIVETHAASNGSMSEQYDKSDGEQLSARDLTWSYAALLTANNRRNSVVPASWGETSASSVPGTCAATSAIGTYSSVTVTSWPSIVATGGTTTTATPTGSGSVTSTSKTTATASKTSTSTSSTSCTTPTAVAVTFDLTATTTYGENIYLVGSISQLGDWETSDGIALSADKYTSSDPLWYVTVTLPAGESFEYKFIRIESDDSVEWESDPNREYTVPQACGTSTATVTDTWR

conditions: unlabeled protein

Row | Molecule | pI (known) of conventional protein pI marker
1 | B1 | 7.80 and 8.00 and 8.20
2 | B2 | 9.30
3 | B3 | 7.00
4 | B4 | 3.50
